From US7148193B2, “Compounds that bind to growth hormone receptor” (Antyra, Inc., priority 1997, dated 2006)
Numbering of substitutions follows the chain as printed.

How the values were obtained:
rGHBP [1] = biological target: T1, rGHBP (Rattus norvegicus, UniProt P16310); test: Species specificity of binding by ELISA and BIAcore, rGHBP; conditions: in words
T1 construct: 1–48 of GHBP; The 3′ oligo used for this reaction encoded the mutation L43R (CTG→AGA); The second PCR reaction amplified the DNA encoding amino acids 38–260; 6xHis; made in house
T1 sequence (P16310 19-278 isoform P16310-2): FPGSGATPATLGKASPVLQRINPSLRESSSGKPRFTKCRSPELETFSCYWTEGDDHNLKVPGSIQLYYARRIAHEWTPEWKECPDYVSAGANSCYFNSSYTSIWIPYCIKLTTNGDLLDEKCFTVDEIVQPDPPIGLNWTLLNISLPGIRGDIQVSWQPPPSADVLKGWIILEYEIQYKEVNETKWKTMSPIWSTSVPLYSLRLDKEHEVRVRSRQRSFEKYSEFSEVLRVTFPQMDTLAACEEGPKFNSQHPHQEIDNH
Method: (§1) Wells were coated with either recombinant rGHBP or ‘hu’ GHBP (100 ng/well). Additions of H5 (SEQ ID NO:8) and H10 (SEQ ID NOS:9, 80, and 81) phage (10^10/well) and detection were made as described. […] Streptavidin chips were coated with H5 (SEQ ID NO:8) to 1100 RU as described and rGHBP or ‘hu’ GHBP (500 μg/ml) injected as 30 μl samples.
(§2) Growth hormone receptors from different species bind human GH as well as their own GH, however human GHR only binds human or monkey GH. […] The sequence of rGHBP was altered by PCR to create a “humanized” version (‘hu’ GHBP; FIG. 9A). Partially purified ‘hu’GHBP (FIG. 9B) was tested for binding using ELISA and BIAcore analysis. […] This was confirmed by BIAcore analysis (FIG. 10B).
(§3) The biotinylated control peptide (SEQ ID NO:10) was immobilized onto one flow cell of a SA-5 (streptavidin coated) sensor chip to a final density of 700 RU. On a second flow cell, either hGH (1100 RU final density), H5WT peptide (SEQ ID NO:8; 1100 RU final density), or bGH (730 RU final density) was immobilized. GHBP (either rat or humanized) was injected at a concentration of 500 μg/ml with a flow rate of 5 μl/min. Background binding to the control surface was subtracted prior to further analysis.

rGHBP [2] = biological target: T1, rGHBP; test: Phage ELISA binding and competition on rGHBP coated wells; conditions: for ELISA Competition, rGHBP, +BSA / ELISA Competition, rGHBP, +bGH / ELISA Competition, rGHBP, none: ELISA signal; for ELISA Competition, rGHBP, +BSA: BSA 1 μM; for ELISA Competition, rGHBP, none: no competitor; for clone binding blocked by GH: GH 1 μM, bovine GH on rat GHBP wells, huGH on ‘hu’ GHBP wells
Method: For analysis of individual clones, colonies were picked and phage prepared as described above. Microtiter wells were coated and blocked as described above. Wells were coated with either rGHBP or a control IgG MAb. Phage resuspended in MPBS were added to duplicate wells (100 μl/well) and incubated at room temperature for 1 hr. The phage solution was then removed, and the wells were washed three times with PBS at room temperature. Anti-M13 antibody conjugated to horseradish peroxidase (Pharmacia Biotech) was diluted 1:3000 in MPBS and added to each well (100 μl/well). Incubation was for another hour at room temperature, followed by PBS washes as described. Color was developed by addition of ABTS solution (100 μl/well; Boehringer). Color development was stopped by adjusting each well to 0.5% SDS. Plates were analyzed at 405 nm using a SpectraMax 340 plate reader (Molecular Devices) and SoftMax Pro software. Data points were averaged after subtraction of appropriate blanks. A clone was considered “positive” if the A405 of the well was >2-fold over background. […]
These clones were next analyzed for binding to the receptor's active sites (FIG. 2B). Competitions of phage binding were done both with the cognate ligand (i.e., GH) and with a specific target-neutralizing MAb 2C3 (Wang, B. S., et al. Mol. Cellular Endocrinology, vol. 116, p. 223–226, 1996).
(§4) Clones were tested for the presence of E-tag and binding to ‘hu’ GHBP, rGHBP, or BSA-coated wells. Those having specific GHBP binding (i.e., at least 2 fold greater binding to the GHBP than BSA) and with an E-tag positive signal were subjected to DNA sequencing. Three different clones were isolated and tested a second time against GHBP plus and minus GH (1 μM) or BSA (1 μM) coated wells as described. In these tests, huGH was used as competitor with ‘hu’ GHBP coated wells and bovineGH was used as a competitor with rat GHBP coated wells. […] The following open reading frame insertion including the DYKD (SEQ ID NO:79) amino terminal tag and up to the C-terminal E-tag was obtained for these clones; and is shown in Table III: […]

[3] = biological target: T2, ‘hu’ GHBP (humanized rat GHBP) (Rattus norvegicus, UniProt P16310, L61R); test: Phage ELISA binding and competition on 'hu' GHBP coated wells; conditions: ELISA signal; for ELISA Competition, ‘hu’GHBP, +BSA: BSA 1 μM; for ELISA Competition, ‘hu’GHBP, +hGH: huGH 1 μM as competitor; for ELISA Competition, ‘hu’GHBP, none: no competitor
T2 construct: 1–48 of GHBP; The 3′ oligo used for this reaction encoded the mutation L43R (CTG→AGA); The second PCR reaction amplified the DNA encoding amino acids 38–260; 6xHis; made in house
T2 sequence (P16310 19-278 isoform P16310-2 L61R): T1 sequence (P16310 19-278 isoform P16310-2) with L43R
Method: For analysis of individual clones, colonies were picked and phage prepared as described above. Microtiter wells were coated and blocked as described above. Wells were coated with either rGHBP or a control IgG MAb. Phage resuspended in MPBS were added to duplicate wells (100 μl/well) and incubated at room temperature for 1 hr. The phage solution was then removed, and the wells were washed three times with PBS at room temperature. Anti-M13 antibody conjugated to horseradish peroxidase (Pharmacia Biotech) was diluted 1:3000 in MPBS and added to each well (100 μl/well). Incubation was for another hour at room temperature, followed by PBS washes as described. Color was developed by addition of ABTS solution (100 μl/well; Boehringer). Color development was stopped by adjusting each well to 0.5% SDS. Plates were analyzed at 405 nm using a SpectraMax 340 plate reader (Molecular Devices) and SoftMax Pro software. Data points were averaged after subtraction of appropriate blanks. A clone was considered “positive” if the A405 of the well was >2-fold over background.
Humanized GHBP (‘hu’ GHBP) contained the single amino acid change of rat GHBP amino acids L43 to R43, and was capable of binding human GH, as shown in FIG. 9. Direct immobilization of ‘hu’ GHBP was done as described earlier for panning of the secondary H5 library against rat GHBP and used inputs of ‘hu’ GHBP, prepared as described earlier of 100 μl per well of […] protein. Panning was performed with or without H10 peptide (SEQ ID NO:9; 30 μM) for 4 rounds, and 96 clones were picked.
as §4

‘hu’ GHBP = biological target: T3, ‘hu’ GHBP (Rattus norvegicus, UniProt P16310, L61R); test: Species specificity of binding by ELISA and BIAcore, 'hu' GHBP; conditions: in words
T3 construct: 1–48 of GHBP; The 3′ oligo used for this reaction encoded the mutation L43R (CTG→AGA); The second PCR reaction amplified the DNA encoding amino acids 38–260; 6xHis; made in house
T3 sequence (P16310 19-278 isoform P16310-2 L61R): T1 sequence (P16310 19-278 isoform P16310-2) with L43R
Method: as §1, §2, §3

[4] = biological target: T4, rat growth hormone receptor (Rattus norvegicus, UniProt P16310); test: Cell proliferation assay (WST-1) in FDC-1 cells stably transfected with rat growth hormone receptor; assay type: cell-based; conditions: cells with 0.003 μM bovine GH, 18 h, at the concentrations tested
T4 construct: expressed in transfected cells; host or cells: FDC-1 cells
T4 sequence (P16310 19-638): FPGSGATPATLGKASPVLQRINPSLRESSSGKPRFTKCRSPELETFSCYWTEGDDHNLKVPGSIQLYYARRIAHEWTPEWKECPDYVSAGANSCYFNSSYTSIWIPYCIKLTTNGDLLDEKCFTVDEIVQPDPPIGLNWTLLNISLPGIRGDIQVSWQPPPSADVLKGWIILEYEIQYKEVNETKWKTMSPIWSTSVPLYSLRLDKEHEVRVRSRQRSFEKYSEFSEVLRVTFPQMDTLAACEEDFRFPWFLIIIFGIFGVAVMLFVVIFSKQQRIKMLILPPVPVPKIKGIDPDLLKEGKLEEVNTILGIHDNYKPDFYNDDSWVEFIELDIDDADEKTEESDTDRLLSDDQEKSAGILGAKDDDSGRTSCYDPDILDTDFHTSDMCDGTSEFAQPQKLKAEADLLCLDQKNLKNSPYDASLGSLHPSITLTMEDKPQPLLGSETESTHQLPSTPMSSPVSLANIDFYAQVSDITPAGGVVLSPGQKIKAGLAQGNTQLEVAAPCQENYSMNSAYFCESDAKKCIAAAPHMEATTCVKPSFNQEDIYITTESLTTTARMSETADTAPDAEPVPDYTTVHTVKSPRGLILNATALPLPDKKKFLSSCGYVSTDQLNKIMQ
Method: Cells transfected with rat GHR (50,000 cells per well) were incubated with either bovine GH, H5 peptide (SEQ ID NO:8), 447 peptide (SEQ ID NO:11) or control peptide (SEQ ID NO:10) for 18 h at 37° C. Experiments were done in triplicate. Background signal A450=0.15. […] Cells transfected with rat GHR (50,000 cells per well) containing […] bovine GH were incubated with either control peptide (SEQ ID NO:10), H5 peptide (SEQ ID NO:8) or 447 peptide (SEQ ID NO:11) for 18 h at 37° C. Proliferation was measured using WST-1 reagent. The “*” symbol corresponds to the A450 measurement for the cells incubated without GH.
Agonistic and antagonistic activities of the two peptides, H5WT (SEQ ID NO:8) and bP#447 ([…]), were tested in FDC-1 cells stably transfected with the gene encoding the rat growth hormone receptor. The resulting cell line required either IL-3 or GH for growth. The cells were grown in RPMI 1640 medium containing 10% FCS (fetal calf serum) and 20 units of IL-3 per ml. […] activity assays were performed in a total volume of 100 μl in 96 well plates (flat bottom). Cells were seeded at 50,000 cells/well in 50 μl RPMI 1640 (without IL-3) medium containing horse serum instead of FCS to reduce background. To duplicate wells, 50 μl of either growth hormone or peptides at different concentrations was added, followed by incubation for 18 h in a CO2 incubator. Assays to measure the antagonistic activity were performed in a total volume of 100 μl in 96 well plates. Either H5WT peptide (SEQ ID NO:8), bP#447 peptide (SEQ ID NO:11), or control peptide (SEQ ID NO:10) was added to cells containing 0.003 μM of bovine GH and incubated at 37° C. for 18 h in a CO2 incubator. Proliferation assays were performed using WST-1 reagent. The WST-1 tetrazolium salt (light red color) is cleaved to formazan (dark red color) by the succinate-tetrazolium reductase system, which is active only in viable cells. […] Ten microliters of WST-1 reagent was added and the plates incubated for 1–4 h 37° C. Proliferation was measured by absorbance at 450 nm.

Substance	binding to rGHBP (rGHBP [1])	ELISA Competition, rGHBP, +BSA (rGHBP [2])	ELISA Competition, rGHBP, +bGH (rGHBP [2]; bovine GH 1 μM as competitor)	ELISA Competition, rGHBP, none (rGHBP [2])	clone binding blocked by GH (rGHBP [2])	ELISA Competition, ‘hu’GHBP, +BSA [3]	ELISA Competition, ‘hu’GHBP, +hGH [3]	ELISA Competition, ‘hu’GHBP, none [3]	binding to ‘hu’ GHBP (‘hu’ GHBP)	antagonistic activity [4]	binding to rGHBP (rGHBP [1]; listed as clone 13)	ELISA Competition, rGHBP, +BSA (rGHBP [2]; phage concentrated 15×)	ELISA Competition, rGHBP, +bGH (rGHBP [2]; bovine GH 1 μM, phage concentrated 15×)	ELISA Competition, rGHBP, none (rGHBP [2]; phage concentrated 15×)	binding to ‘hu’ GHBP (‘hu’ GHBP; listed as clone 13)	phage binding to rGHBP blocked by GH and MAb 2C3 (rGHBP [2]; competition ELISA of phage binding)
DYKDALLHRSRCVRWGKWVCCLPPVGVGGAQANQGMSVQRFRHC (phage displayed; clone hh peptide)	bind to both forms of GHBP	0.53	0.52	0.55	only clone 13 was blocked by GH	0.37	0.35	0.37	bind to both forms of GHBP							
Control peptide: SEQ ID NO:10, contains same amino acids as H5 in randomized order (DYKDWCLTLQPLVWASGGGYCA; control peptide) [reference compound]										no antagonistic activity						
DYKDAQWWTTlGSNMFVLPGLRGCTFLPPMQCDREIRVFLVVVH (DYKDAQWWTTIGSNMFVLPGLRGCTFLPPMQCDREIRVFLVVVH; phage displayed; clone 13 peptide) [compound 13]	bind to both forms of GHBP				blocked by GH				bind to both forms of GHBP		bound to both human and rat forms of GHBP	1.98	0.29	2.01	bound to both human and rat forms of GHBP	
H10: frame shifted phage clone without ORF, SEQ ID NOS:9, 80 and 81, binds rGHBP outside the active site (WLGCYFVAGVVACV; H10 peptide)	bound to rGHBP	0.52	0.48	0.52		0.29	0.28	0.30	bound to rGHBP and ‘hu’ GHBP							not blocked by either GH or MAb 2C3
